Molecular target: T1, human claudin 18.2 (CLDN18.2) (human)
T1 construct: also called claudin 18 variant 2; claudin-18a2.1
Experiment: FACS on HEK293-CLDN18.2 stable pool, FITC-based detection

T1 sequence (chain, as listed by the source limits assumed): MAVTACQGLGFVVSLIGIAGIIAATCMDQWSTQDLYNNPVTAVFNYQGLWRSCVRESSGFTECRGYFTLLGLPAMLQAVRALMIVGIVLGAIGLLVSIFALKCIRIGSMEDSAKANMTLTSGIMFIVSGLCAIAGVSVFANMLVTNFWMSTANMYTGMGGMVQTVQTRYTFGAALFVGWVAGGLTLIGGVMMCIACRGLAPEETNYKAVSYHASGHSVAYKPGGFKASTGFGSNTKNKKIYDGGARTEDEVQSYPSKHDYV

Row | Binder | EC50 [nM]
1 | humanized anti-CLDN18.2 mAb 5-E22-H1L1 (antibody, V domains shown, Humanized VH and VL fused to the constant regions of human IgG1 heavy chain and kappa light chain) VH: QVQLVQSGVEVKKPGASVKVSCKASGYTITDNYMHWVRQAPGQGLEWIGEIYPGSGNTYFNEKFKNRATLTADKSTTTAYMELKSLQFDDTAVYFCARGFPYYAMDYWGQGTTVTVSS VL: EIVMTQSPATLSLSPGERATLSCHARQNINVWLSWYQQKPGQAPRLLIYKASNLHTGVPARFSGSGSGTDFTLTISSLEPEDFAVYYCQQGQNYPLTFGGGTKVEIK | 59
2 | humanized anti-CLDN18.2 mAb 5-E22-H1L3 (antibody, V domains shown, Humanized VH and VL fused to the constant regions of human IgG1 heavy chain and kappa light chain) VH: QVQLVQSGVEVKKPGASVKVSCKASGYTITDNYMHWVRQAPGQGLEWIGEIYPGSGNTYFNEKFKNRATLTADKSTTTAYMELKSLQFDDTAVYFCARGFPYYAMDYWGQGTTVTVSS VL: DIVMTQSPLSLPVTPGEPASISCHARQNINVWLSWYLQKPGQSPQLLIYKASNLHTGVPDRFSGSGSGTDFTLKISRVEAEDVGVYYCQQGQNYPLTFGQGTKVEIK | 61
3 | humanized anti-CLDN18.2 mAb 5-E22-H3L2 (antibody, V domains shown, Humanized VH and VL fused to the constant regions of human IgG1 heavy chain and kappa light chain) VH: QVQLVQSGAEVKKPGASVKVSCKASGYTITDNYMHWVRQAPGQGLEWIGEIYPGSGNTYYAEKFKNRATLTADKSISTAYMELSRLRSDDTAVYFCARGFPYYAMDYWGQGTLVTVSS VL: EIVLTQSPATLSLSPGERATLSCHARQNINVWLSWYQQKPGQAPRLLIYKASNLHTGIPARFSGSGSGTDFTLTISSLEPEDFAVYYCQQGQNYPLTFGGGTKVEIK | 19.4
4 | humanized anti-CLDN18.2 mAb 5-E22-H3L3 (antibody, V domains shown, Humanized VH and VL fused to the constant regions of human IgG1 heavy chain and kappa light chain) VH: QVQLVQSGAEVKKPGASVKVSCKASGYTITDNYMHWVRQAPGQGLEWIGEIYPGSGNTYYAEKFKNRATLTADKSISTAYMELSRLRSDDTAVYFCARGFPYYAMDYWGQGTLVTVSS VL: DIVMTQSPLSLPVTPGEPASISCHARQNINVWLSWYLQKPGQSPQLLIYKASNLHTGVPDRFSGSGSGTDFTLKISRVEAEDVGVYYCQQGQNYPLTFGQGTKVEIK | 14.7
5 | humanized anti-CLDN18.2 mAb 5-E22-H3L1 (antibody, V domains shown, Humanized VH and VL fused to the constant regions of human IgG1 heavy chain and kappa light chain) VH: QVQLVQSGAEVKKPGASVKVSCKASGYTITDNYMHWVRQAPGQGLEWIGEIYPGSGNTYYAEKFKNRATLTADKSISTAYMELSRLRSDDTAVYFCARGFPYYAMDYWGQGTLVTVSS VL: EIVMTQSPATLSLSPGERATLSCHARQNINVWLSWYQQKPGQAPRLLIYKASNLHTGVPARFSGSGSGTDFTLTISSLEPEDFAVYYCQQGQNYPLTFGGGTKVEIK | 12.1
6 | humanized anti-CLDN18.2 mAb 5-E22-H1L2 (antibody, V domains shown, Humanized VH and VL fused to the constant regions of human IgG1 heavy chain and kappa light chain) VH: QVQLVQSGVEVKKPGASVKVSCKASGYTITDNYMHWVRQAPGQGLEWIGEIYPGSGNTYFNEKFKNRATLTADKSTTTAYMELKSLQFDDTAVYFCARGFPYYAMDYWGQGTTVTVSS VL: EIVLTQSPATLSLSPGERATLSCHARQNINVWLSWYQQKPGQAPRLLIYKASNLHTGIPARFSGSGSGTDFTLTISSLEPEDFAVYYCQQGQNYPLTFGGGTKVEIK | 259
7 | humanized anti-CLDN18.2 mAb 2-C3-H1L1 (antibody, V domains shown, Humanized VH and VL fused to the constant regions of human IgG1 heavy chain and kappa light chain) VH: QVTLRESGPALVKPTQTLTLTCTASGFTFSSYGMSWVRQPPGKALEWVATISGGGSYTYYNPSLKDRFTISRDISANQLVLKVTNMDPADTATYFCARQSRGNAMDYWGQGTTVTVSS VL: DIQMTQSPSTLSASVGDRVTITCKSSQSLLNSGNQKNYLTWYQQKPGKAPKLLIYWASTRESGVPSRFSGSGSGTAFTLTISSLQPDDFATYYCQNDYSYPLTFGGGTKVEIK | 9.8
8 | humanized anti-CLDN18.2 mAb 6-J11-H1L1 (antibody, V domains shown, Humanized VH and VL fused to the constant regions of human IgG1 heavy chain and kappa light chain) VH: EVQLVESGGGLVQPGGSLRLSCAASGFIFSSFGMHWVRQAPGKGLEWVAYISSGRSTMYYADSVKGRFTISRDNSKNTLYLQMNSLTAEDTAVYYCARGGFYGNSLDYWGQGTLVTVSS VL: DIQMTQSPSSLSASVGDRVTITCKSSLSLLNSGNQKNYLTWYQQKPGKAPKLLIYWASTRESGVPSRFSGSGSGTDFTLTISSLQPEDFATYSCQNAYSYPLTFGQGTKVEIK | 11.2
9 | humanized anti-CLDN18.2 mAb 2-C3-H2L2 (antibody, V domains shown, Humanized VH and VL fused to the constant regions of human IgG1 heavy chain and kappa light chain) VH: QVTLRESGPALVKPTQTLTLTCTFSGFTFSSYGMSWIRQPPGKALEWLATISGGGSYTYYLDSLKDRFTISRDISKNQVVLTVTNMDPADTATYFCARQSRGNAMDYWGQGTTVTVSS VL: DIQMTQSPSTLSASVGDRVTITCKSSQSLLNSGNQKNYLTWYQQKPGKAPKLLIYWASTRESGVPSRFSGSGSGTEFTLTISSLQPDDFATYYCQNDYSYPLTFGGGTKVEIK | 8
10 | humanized anti-CLDN18.2 mAb 6-J11-H2L1 (antibody, V domains shown, Humanized VH and VL fused to the constant regions of human IgG1 heavy chain and kappa light chain) VH: EVQLVESGGGLVQPGGSLRLSCAASGFIFSSFGMHWVRQAPGKGLEWVAYISSGRSTMYYADSVKGRFTISRDNSKNTLYLQMNSLRSEDTAVYYCARGGFYGNSLDYWGQGTLVTVSS VL: DIQMTQSPSSLSASVGDRVTITCKSSLSLLNSGNQKNYLTWYQQKPGKAPKLLIYWASTRESGVPSRFSGSGSGTDFTLTISSLQPEDFATYSCQNAYSYPLTFGQGTKVEIK | 11.4
11 | humanized anti-CLDN18.2 mAb 2-C3-H2L1 (antibody, V domains shown, Humanized VH and VL fused to the constant regions of human IgG1 heavy chain and kappa light chain) VH: QVTLRESGPALVKPTQTLTLTCTFSGFTFSSYGMSWIRQPPGKALEWLATISGGGSYTYYLDSLKDRFTISRDISKNQVVLTVTNMDPADTATYFCARQSRGNAMDYWGQGTTVTVSS VL: DIQMTQSPSTLSASVGDRVTITCKSSQSLLNSGNQKNYLTWYQQKPGKAPKLLIYWASTRESGVPSRFSGSGSGTAFTLTISSLQPDDFATYYCQNDYSYPLTFGGGTKVEIK | 8.8
12 | humanized anti-CLDN18.2 mAb 2-C3-H1L2 (antibody, V domains shown, Humanized VH and VL fused to the constant regions of human IgG1 heavy chain and kappa light chain) VH: QVTLRESGPALVKPTQTLTLTCTASGFTFSSYGMSWVRQPPGKALEWVATISGGGSYTYYNPSLKDRFTISRDISANQLVLKVTNMDPADTATYFCARQSRGNAMDYWGQGTTVTVSS VL: DIQMTQSPSTLSASVGDRVTITCKSSQSLLNSGNQKNYLTWYQQKPGKAPKLLIYWASTRESGVPSRFSGSGSGTEFTLTISSLQPDDFATYYCQNDYSYPLTFGGGTKVEIK | 9.1

— US20200399364A1 (PHANES THERAPEUTICS, published 2020)
